From patent publication US20190360025A1
Blank lines part the entries; values can stand above or below the substance they belong to.

Columns and labels:
[1] = target: tumor necrosis factor alpha (TNF-α), R&D Systems 210-TA-005 (UniProt P01375); test: c-PLA 1X probes, buffer; TNF-α 1.00E-08 M
[2] = target: tumor necrosis factor alpha (TNF-α), R&D Systems 210-TA-005 (UniProt P01375); test: SPR (Biacore T200), 1:1 global fit
[3] = target: tumor necrosis factor alpha (TNF-α), R&D Systems 210-TA-005 (UniProt P01375); test: t-PLA 1X probes, human plasma; TNF-α 1.00E-11 M
[4] = target: tumor necrosis factor alpha (TNF-α), R&D Systems 210-TA-005 (UniProt P01375); test: t-PLA 1X probes, buffer; TNF-α 5.00E-07 M
[5] = target: tumor necrosis factor alpha (TNF-α), R&D Systems 210-TA-005 (UniProt P01375); test: t-PLA 10X probes, human plasma; TNF-α 1.00E-10 M
[6] = target: tumor necrosis factor alpha (TNF-α), R&D Systems 210-TA-005 (UniProt P01375); test: t-PLA, buffer; TNF-α 1.00E-12 M
[7] = target: tumor necrosis factor alpha (TNF-α), R&D Systems 210-TA-005 (UniProt P01375); test: c-PLA 1X probes, human plasma; TNF-α 1.00E-12 M
[8] = target: tumor necrosis factor alpha (TNF-α), R&D Systems 210-TA-005 (UniProt P01375); test: c-PLA, buffer; TNF-α 5.00E-07 M
[9] = target: tumor necrosis factor alpha (TNF-α), R&D Systems 210-TA-005 (UniProt P01375); test: t-PLA 1X probes, human plasma; TNF-α 1.00E-09 M
[10] = target: tumor necrosis factor alpha (TNF-α), R&D Systems 210-TA-005 (UniProt P01375); test: c-PLA 1X probes, human plasma; TNF-α 1.00E-09 M
[11] = target: tumor necrosis factor alpha (TNF-α), R&D Systems 210-TA-005 (UniProt P01375); test: t-PLA 10X probes, human plasma; TNF-α 1.00E-09 M
[12] = target: tumor necrosis factor alpha (TNF-α), R&D Systems 210-TA-005 (UniProt P01375); test: c-PLA 1X probes, human plasma; TNF-α 5.00E-07 M
[13] = target: tumor necrosis factor alpha (TNF-α), R&D Systems 210-TA-005 (UniProt P01375); test: c-PLA 1X probes, human plasma; TNF-α 1.00E-11 M
[14] = target: vascular endothelial growth factor (VEGF), R&D Systems 293-VE-010 (human) (UniProt P15692); test: SPR (Biacore T200), 1:1 global fit
Chain of UniProt P15692 (P15692 other isoform, or with tags, fused parts or gaps limits assumed): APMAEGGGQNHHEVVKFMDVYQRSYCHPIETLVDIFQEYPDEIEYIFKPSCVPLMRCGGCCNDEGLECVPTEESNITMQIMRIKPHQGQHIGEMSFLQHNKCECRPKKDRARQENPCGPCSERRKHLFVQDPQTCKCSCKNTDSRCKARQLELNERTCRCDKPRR

[15] = target: vascular endothelial growth factor (VEGF), R&D Systems 293-VE-010 (human) (UniProt P15692); test: t-PLA, chicken plasma; VEGF 1.00E-10 M
[16] = target: vascular endothelial growth factor (VEGF), R&D Systems 293-VE-010 (human) (UniProt P15692); test: t-PLA, chicken plasma; VEGF 1.00E-11 M
[17] = target: vascular endothelial growth factor (VEGF), R&D Systems 293-VE-010 (human) (UniProt P15692); test: c-PLA with preamplification; VEGF 1.00E-12 M
[18] = target: vascular endothelial growth factor (VEGF), R&D Systems 293-VE-010 (human) (UniProt P15692); test: t-PLA, chicken plasma; VEGF 1.00E-09 M
[19] = target: vascular endothelial growth factor (VEGF), R&D Systems 293-VE-010 (human) (UniProt P15692); test: t-PLA, buffer; VEGF 1.00E-08 M
[20] = target: vascular endothelial growth factor (VEGF), R&D Systems 293-VE-010 (human) (UniProt P15692); test: t-PLA, human plasma; VEGF 1.00E-09 M
[21] = target: vascular endothelial growth factor (VEGF), R&D Systems 293-VE-010 (human) (UniProt P15692); test: c-PLA, buffer; VEGF 1.00E-13 M
[22] = target: vascular endothelial growth factor (VEGF), R&D Systems 293-VE-010 (human) (UniProt P15692); test: t-PLA, human plasma; VEGF 1.00E-10 M
[23] = target: vascular endothelial growth factor (VEGF), R&D Systems 293-VE-010 (human) (UniProt P15692); test: t-PLA, buffer; VEGF 1.00E-14 M
[24] = target: vascular endothelial growth factor (VEGF), R&D Systems 293-VE-010 (human) (UniProt P15692); test: t-PLA with preamplification; VEGF 1.00E-08 M
[25] = target: vascular endothelial growth factor (VEGF), R&D Systems 293-VE-010 (human) (UniProt P15692); test: c-PLA, buffer; VEGF 1.00E-09 M
[26] = target: vascular endothelial growth factor (VEGF), R&D Systems 293-VE-010 (human) (UniProt P15692); test: c-PLA, human plasma; VEGF 1.00E-10 M
[27] = target: vascular endothelial growth factor (VEGF), R&D Systems 293-VE-010 (human) (UniProt P15692); test: c-PLA, human plasma; VEGF 1.00E-08 M
[28] = target: vascular endothelial growth factor (VEGF), R&D Systems 293-VE-010 (human) (UniProt P15692); test: t-PLA with preamplification; VEGF 1.00E-14 M

Chain of UniProt P01375 (P01375 77-233 limits assumed): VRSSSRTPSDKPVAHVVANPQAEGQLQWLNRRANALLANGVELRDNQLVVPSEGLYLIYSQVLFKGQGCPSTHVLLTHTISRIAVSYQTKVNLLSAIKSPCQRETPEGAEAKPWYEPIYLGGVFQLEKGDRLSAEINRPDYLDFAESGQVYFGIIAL

Substance: affinity-purified polyclonal anti-TNF-α antibody (R&D Systems AF-210-NA)
Counts [1]: 11600
SBR [1]: 730
Kd [2]: 0.279 nM
Counts [3]: 745000
SBR [3]: 3.1
Counts [4]: 1.33e+08
Counts [5]: 1.44e+07
SBR [5]: 1.3
Counts [6]: 1.65e+06
SBR [6]: 9.7
Counts [7]: 75.9
Counts [8]: 33000
SBR [8]: 2930
Counts [9]: 4.96e+06
SBR [9]: 21
Counts [10]: 1310
SBR [10]: 17
Counts [11]: 8.87e+07
SBR [11]: 7.8
Counts [12]: 28800
SBR [12]: 383
Counts [13]: 105
SBR [13]: 1.4

Kd [14]: 0.0036 nM
Counts [15]: 9.58e+07
SBR [15]: 1430
Counts [16]: 7.94e+06
SBR [16]: 119
Counts [17]: 516000
SBR [17]: 8.7
Counts [18]: 2.39e+08
SBR [18]: 3580
Counts [19]: 2.5e+09
SBR [19]: 7230
Counts [20]: 1.4e+08
SBR [20]: 86
Counts [21]: 272
SBR [21]: 9.1
Counts [22]: 4.9e+07
SBR [22]: 30
Counts [23]: 595000
SBR [23]: 1.7
Counts [24]: 1e+09
SBR [24]: 5680
Counts [25]: 778000
SBR [25]: 26200
Counts [26]: 13800
SBR [26]: 53
Counts [27]: 24800
SBR [27]: 96
Counts [28]: 363000
Substance: affinity-purified polyclonal anti-VEGF antibody (R&D Systems AF-293-NA)
